Source: patent US20200270310A1, “MAFG AS A POTENTIAL THERAPEUTIC TARGET TO RESTORE CHEMOSENSITIVITY IN PLATINUM-RESISTANT CANCER CELLS” (FUNDACÓIN PARA LA INVESTIGACIÓN BIOMÉDICA DEL HOSPITAL …, priority 2017, published 2020)

Tests used:
BSA = BSA (UniProt P02769 P02769:25-607); assay: ELONA; background control; MAFG signal up to four times that of BSA; conditions: label: 5' digoxigenin
[1] = tested on: human MAFG peptides M1-M10; assay: ELONA of aptamers with 10 MAFG peptides; format: binding; conditions: digoxigenin aptamer 20 nM, 1 μg peptide, absorbance at 405 nm
Method: (§1) FIG. 9. Characterization of the interaction of aptamers with MAFG. ELONAS in which the Aptamers bound to digoxigenin (20 nM) were incubated 1 hour at 37° C. with 10 peptides (1 μg) previously attached to the plate overnight. After incubating 1 hour with antidigoxigenin-Peroxidase 1/1000, ABTS was added and at 10 minutes the absorbance at 405 nm was measured.
In order to identify compounds of the invention and starting from the amino acidic sequence of human MAFG (NCBI Reference Sequence: NP_116100.2) of: SEQ ID NO 2: […]); we designed the following 10 peptides (please refer to table below):
Peptide M4, amino acids 49-68 corresponds to the basic MAFG region containing the tyrosine residue (Tyr64), as well as the arginine residue (Arg57) required for binding to the DNA, in addition to a nuclear localization signal.

MAFG-Myc = target: T1, MAFG-Myc (Homo sapiens, UniProt O15525); assay: Enzyme-linked oligonucleotide assay (ELONA) of aptamers and aptamer populations; format: binding; conditions: for affinity against MAFG: Example 1, individual aptamers; for binding capacity to the target: Example 3, individual sequences from SEL6MAFG; for binding signal relative to BSA protein: individual sequences from SEL6MAFG
T1 construct: Myc (C); DDK (FLAG)
Method: FIG. 4. Analysis of the affinity of the aptamers against MAFG. (A) Quantification of aptamer-MAFG complexes by qPCR comparing absence (dot pattern) or presence (filled pattern) of MAFG protein. […] Bars represent the mean±SEM of 2-3 experiments (B) Specificity binding assay of aptamers to MAFG performed by ELONA. MAFG-myc was plated at 50ng/well in 96-well plates followed by incubation with 5′ digoxigenin-labeled aptamers from RND40, SEL3MAFG and SEL6MAFG. The figure represents the mean±SEM of 3 independent experiments. p<0.01. (C) Aptacytochemistry in HEK-293T cells transiently transfected with MAFG-myc. Cells overexpressing MAFG were incubated with 5′ Alexafluor 488-conjugated aptamers from RND40, SEL3MAFG or SEL6MAFG (upper panel) or Myc antibody (lower panel). Confocal microscopy images corresponding to the staining of nuclei with Hoechst (blue), antibodies (red), and aptamers (green) are shown. Arrowhead indicates positive cells. Bar=13 μm. (D) Study of individual aptamers affinity performed by ELONA. Recombinant MAFG was plated at 50 ng/well in 96-well plates followed by incubation with 5′ digoxigenin-labeled individual aptamers apMAGF3F, apMAFG6F and apMAFG11F. The figure represents the mean±SD of 2 independent experiments. (E) Secondary structures of aptamers apMAGF3F, apMAFG6F and apMAFG11F obtained by bioinformatics sequence analysis using the mFold software taking into account the lower free energy (AG).
(ii) Enzyme-linked oligonucleotide assay (ELONA): Aptamers were labeled by PCR using 5′ digoxigenin-labeled F3/5′ digoxigenin-labeled R3 primers (IBA Life Sciences). To assess the enrichment of the selected population and the affinity of the individual aptamers for the target, MAFG-Myc (50 ng) was incubated with the rounds 3, 6 of aptamers or the RND40 library. OD405nm values were determined using a SpectraFluor microplate reader (TECAN, Barcelona, Spain).

[2] = target: T2, MAFG in H23S and H23R cells (Homo sapiens, UniProt O15525); assay: Aptacytochemistry with digoxigenin-labeled individual aptamers; format: cell-based
T2 construct: endogenous in cells; host or cells: H23S and H23R (NSCLC cells, fixed)
Method: Following the methodology described above, H23R cells were incubated with 6 pmol of digoxigenin-labeled aptamers (IBA Life Sciences) in selection buffer for 1 hour at room temperature. Subsequently, cells were washed three times with PBS and incubated with anti-digoxigenin conjugated with 5′ AlexaFluor 488 (R&D systems, USA) at 1/500 dilution in blocking buffer for 1 hour at room temperature, as secondary antibody. Finally, the cells were mounted on glass slides using glycerol-buffer containing p-phenylenediamine and 1/750 dilution of Dapi for nuclear staining. Controls were made by omitting the aptamer. Colocalization was assessed by confocal microcopy as described in (iii).

[3] = target: T3, MAFG in tumor samples of patients with lung cancer (Homo sapiens, UniProt O15525); assay: Aptahistochemistry in NSCLC tumor samples; conditions: 20 tumor samples classified by MAFG mRNA levels
T3 construct: from tissue; host or cells: Formalin-fixed paraffin-embedded NSCLC tumour sections
Method: The formalin-fixed and paraffin-embedded tissue sections of patients with lung cancer were baked 15 minutes at 60° C. Deparaffinization was performed by two washes of xylene for 10 minutes each. Tissue sections were rehydrated by a sequential wash in 100%, 90%, 80%, 70% ethanol and distilled water for 5 minutes each. Antigen retrieval was achieved by heat treatment in a pressure cooker for 2 minutes in 10 mM citrate buffer (pH 6.5). Endogenous peroxidase activity of tissues was blocked with 0.3% […]. The primary binding reaction was performed with 10 pmol/ml of digoxigenin-conjugated aptamers overnight at room temperature. The secondary binding reaction was performed with anti-digoxigenin conjugated with POD (Roche; 1/200 dilution in TBS) for 45 minutes. Staining was done using the Immunoperoxidase DAB kit (Master Diagnostica), according to the manufacturer's instructions. The sections were counterstained with hematoxylin.
We then took advantage of the aptacytochemistry to perform an aptamer-based histochemistry in 20 tumor samples from our cohort of patients with known mRNA levels of MAFG. […] To determine the correlation between the aptahistochemistry and the mRNA levels of MAFG, we calculated the percentage of cells with positive staining from the total number of cells computed at four different areas randomly selected for each sample.

H23R cells = assay: Viability to CDDP after aptamer transfection (resistance index); format: cell-based, human; conditions: aptamer 25 nM, CDDP 72 h
Method: FIG. 6. Viability curves combining the best dose of aptamers (25nM) and increasing doses of CDDP. Each experimental group was exposed for 72 h to 6 different CDDP concentrations after aptamers transfection; data were normalized to each untreated control, set to 100% and represent the mean±SD of at least 3 independent experiments performed in quadruplicate at each drug concentration for each cell line analyzed 25nM of aptamers and increasing doses of CDDP in H23S/R cells.
Once identified the best dose of aptamers, cells were transfected with aptamers and treated with increased doses of CDDP to assay viability and ROS production as mentioned above. In parallel, for all the experiments, cells were seeded in 24-well plates for aptamers extraction and confirmation of aptamers transfection.
HEK293 and H23S/R cells were seeded into 96-well plates then transfected with 5, 12.5, 25, 75 and 100 nM of MAFG aptamers or treated with PBS-Mg using Jet Pei PolyPlus transfection reagent (PolyPlus Transfection, USA). The dose of 25 nM aptamer was afterwards used in combination with increased doses of CDDP to assay viability and ROS production as described above. To confirm the aptamer-transfection efficiency cells were seeded in 24-well plates for aptamer isolation and confirmation of aptamer transfection by quantitative analysis. A Myc-DDK-tagged ORF clone of MAFG the negative control pCMV6 were used for in transient transfection (OriGene, USA) in combination with MAFG-aptamers following the same procedure.

[4] = target: T4, MAFG peptide M4 (IVQLKQRRRTLKNRGYAASCR) (Homo sapiens, UniProt O15525 SEQ:49-69); assay: ELONA; 20 nM aptamer, 1 ug peptide plated, 37 C 1 h; values only in figure; epitope M4 (residues 57-75 of MAFG); conditions: protein: synthetic; tags: synthetic peptide; label: 5' digoxigenin
T4 chain: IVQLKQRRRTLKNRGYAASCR
Method: as §1

B1: apMAFG3F (ssDNA)
DNA: GCGGATGAAGACTGGTGTGCTGTGCTTTGACGACTGTCTAGTGGGTTTTCTTCCCCCGGCCCTAAATACGAGCAAC
BSA
  binding result: no binding

B2: GCGGATGAAGACTGGTGTGCTGTGCTTTGACGACTGTCTAGTGGGTTTTCTTCCCCCGGCCCTAAATACGAGCAAC (nucleic acid)
chain: GCGGATGAAGACTGGTGTGCTGTGCTTTGACGACTGTCTAGTGGGTTTTCTTCCCCCGGCCCTAAATACGAGCAAC
modifications: chemistry not given here
notes: DNA aptamer selected against the MAFG protein by SELEX
[1]
  interaction of aptamers with the 10 MAFG peptides by ELONA: recognized peptide M4
MAFG-Myc
  affinity against MAFG: high affinity
  binding capacity to the target: high binding capacity to the target in the nanomolar range
  binding signal relative to BSA protein: four times that of the BSA protein
[2]
  cellular localization of the aptamer: also present in the cytoplasm
  number of dots per nucleus, H23R versus H23S: remarkable differences
[3]
  percentage of positive cells in samples with higher MAFG levels: significant increment in the percentage of positive cells
H23R cells
  CDDP resistance index after aptamer transfection: no changes

B3: apMAFG6F (ssDNA)
DNA: GCGGATGAAGACTGGTGTCGATGCATGTGTAGTGCATTTCGAGCCGTTCTATTGGTGTGCCCTAAATACGAGCAAC
[4]
  binding result: binds
BSA
  binding result: no binding

B4: apMAFG11F (ssDNA)
DNA: GCGGATGAAGACTGGTGTCGCGAACCGGGTTACTTTTGTCGCGGGTCGTCGGATCTGTGCCCTAAATACGAGCAAC
BSA
  binding result: no binding

B5: GCGGATGAAGACTGGTGTCGCGAACCGGGTTACTTTTGTCGCGGGTCGTCGGATCTGTGCCCTAAATACGAGCAAC (nucleic acid)
chain: GCGGATGAAGACTGGTGTCGCGAACCGGGTTACTTTTGTCGCGGGTCGTCGGATCTGTGCCCTAAATACGAGCAAC
modifications: chemistry not given here
notes: as for B2
[1]
  interaction of aptamers with the 10 MAFG peptides by ELONA: recognized peptide M4
MAFG-Myc
  affinity against MAFG: high affinity
  binding capacity to the target: high binding capacity to the target in the nanomolar range
  binding signal relative to BSA protein: four times that of the BSA protein
[2]
  number of dots per nucleus, H23R versus H23S: no differences
H23R cells
  CDDP resistance index after aptamer transfection: no changes
